In the assay the target is recombinant LanCL1 (Lanthionine synthetase C-like protein 1) (UniProt O43813). As to the kind of experiment: competition: displacement of photoprobe SEQ ID NO:22 from rLANCL1, in-gel fluorescence.
Sequence of recombinant LanCL1 (Lanthionine synthetase C-like protein 1) (O43813 whole entry): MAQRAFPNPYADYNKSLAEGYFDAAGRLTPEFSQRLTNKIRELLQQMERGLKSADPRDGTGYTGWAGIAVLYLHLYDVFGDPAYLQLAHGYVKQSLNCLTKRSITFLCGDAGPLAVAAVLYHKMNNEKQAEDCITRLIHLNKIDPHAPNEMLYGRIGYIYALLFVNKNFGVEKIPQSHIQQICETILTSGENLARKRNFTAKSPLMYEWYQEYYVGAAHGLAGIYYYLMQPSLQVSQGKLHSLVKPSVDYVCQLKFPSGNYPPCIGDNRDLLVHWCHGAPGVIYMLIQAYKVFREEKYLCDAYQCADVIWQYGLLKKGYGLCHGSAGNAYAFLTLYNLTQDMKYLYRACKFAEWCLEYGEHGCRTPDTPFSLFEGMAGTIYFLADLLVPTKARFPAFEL

With RALNSS [peptide of SEQ ID NO:39, RALNSS], the ED50 displacement value was above 200 µM.

Source of the values: patent publication US20250002534A1.
